Source: US20140004175A1 (COMPUGEN, published 2014)

T1: recombinant human Ang1 carrier-free (R&D Systems, Cat#923-AN-025/CF) (human, UniProt Q15389 20-498, limits assumed)
T1 construct: Bought recombinant protein; also called angiopoietin 1
T1 sequence: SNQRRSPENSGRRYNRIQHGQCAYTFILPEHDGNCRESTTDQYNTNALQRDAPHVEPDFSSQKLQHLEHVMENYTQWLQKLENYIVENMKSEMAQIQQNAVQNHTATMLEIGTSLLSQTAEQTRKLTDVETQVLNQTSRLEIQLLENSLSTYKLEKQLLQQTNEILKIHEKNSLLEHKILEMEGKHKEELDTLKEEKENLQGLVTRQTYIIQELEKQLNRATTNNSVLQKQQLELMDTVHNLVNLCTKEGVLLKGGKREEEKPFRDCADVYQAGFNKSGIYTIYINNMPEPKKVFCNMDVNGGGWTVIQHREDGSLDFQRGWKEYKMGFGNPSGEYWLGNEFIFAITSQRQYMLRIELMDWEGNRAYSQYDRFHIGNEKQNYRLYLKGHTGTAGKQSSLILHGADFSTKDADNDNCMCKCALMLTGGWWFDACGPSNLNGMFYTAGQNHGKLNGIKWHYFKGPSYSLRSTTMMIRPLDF

T2: recombinant human Ang2 carrier-free (R&D Systems, Cat#623-AN-025/CF) (human, UniProt O15123 19-496)
T2 construct: Bought recombinant protein; also called angiopoietin 2
T2 sequence: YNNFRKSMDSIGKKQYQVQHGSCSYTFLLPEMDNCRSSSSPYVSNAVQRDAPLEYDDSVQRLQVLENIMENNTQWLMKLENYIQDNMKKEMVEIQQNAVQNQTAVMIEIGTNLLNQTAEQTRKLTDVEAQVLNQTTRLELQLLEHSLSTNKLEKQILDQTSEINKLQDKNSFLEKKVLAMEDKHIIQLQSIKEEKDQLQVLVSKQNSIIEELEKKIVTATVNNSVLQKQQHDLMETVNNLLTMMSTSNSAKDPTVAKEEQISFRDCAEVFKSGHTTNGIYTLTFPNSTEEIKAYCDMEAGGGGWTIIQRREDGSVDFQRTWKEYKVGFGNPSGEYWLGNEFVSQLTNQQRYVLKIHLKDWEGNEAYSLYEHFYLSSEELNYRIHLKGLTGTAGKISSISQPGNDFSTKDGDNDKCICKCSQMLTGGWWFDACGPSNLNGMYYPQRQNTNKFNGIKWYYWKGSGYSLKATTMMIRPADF

T3: recombinant human Ang4 carrier-free (R&D Systems, Cat#964-AN-025/CF) (human, UniProt Q9Y264 25-503, limits assumed)
T3 construct: Bought recombinant protein; also called angiopoietin 4
T3 sequence: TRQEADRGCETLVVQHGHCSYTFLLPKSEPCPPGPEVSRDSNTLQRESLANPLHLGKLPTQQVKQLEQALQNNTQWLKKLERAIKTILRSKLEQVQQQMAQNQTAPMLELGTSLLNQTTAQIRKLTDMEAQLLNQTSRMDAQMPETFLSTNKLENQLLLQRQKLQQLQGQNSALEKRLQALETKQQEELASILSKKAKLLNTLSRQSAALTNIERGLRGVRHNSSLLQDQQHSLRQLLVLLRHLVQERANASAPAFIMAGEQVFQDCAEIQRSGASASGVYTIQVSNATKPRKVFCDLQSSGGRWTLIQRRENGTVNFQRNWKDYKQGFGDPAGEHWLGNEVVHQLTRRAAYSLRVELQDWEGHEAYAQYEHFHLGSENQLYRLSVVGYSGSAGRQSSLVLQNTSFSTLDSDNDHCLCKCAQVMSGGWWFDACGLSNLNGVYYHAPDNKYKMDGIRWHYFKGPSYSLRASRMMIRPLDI

B1: CGEN-G2 (SEQ ID NO: 11) (peptide)
peptide: Ac-TQQVKQLEQALQNNTQWLKKLERAIKTIL-NH2
B2: CGEN-C6 (SEQ ID NO: 9) (peptide)
peptide: Ac-TDMEAQLLNQTSRMDAQM-NH2
notes: MW 2124.5
B3: CGEN-A11 (SEQ ID NO: 10) (peptide)
peptide: Ac-ETFLSTNKLENQ-NH2
notes: MW 1464.7
B4: CGEN-G6 (SEQ ID NO: 6) (peptide)
peptide: Ac-DLMETVNNLLTMMSTSNSAKD-NH2
notes: MW 2356.8
B5: CGEN-F12 (SEQ ID NO: 8) (peptide)
peptide: Ac-QHSLRQLLVLLRHLVQERANASA-NH2
notes: MW 2694.3
B6: CGEN-F9 (SEQ ID NO: 7) (peptide)
peptide: Ac-QEELASILSKKAKLLNTLSRQSAALTNIERGLRGVR-NH2
notes: MW 4006.8

How the values were obtained:
[1] = target: T1, recombinant human Ang1 carrier-free …; test: SPR (BIAcore), Ang1 immobilised on CM5, peptide 0.625-0.039 µM, 1:1 Langmuir fit
Procedure: (§1) Peptide-protein binding was analyzed using surface plasmon resonance. […] Solutions containing 10-50 μM of CGEN-H2 [SEQ ID NO: 1], CGEN-H3 [SEQ ID NO: 2], CGEN-A8 [SEQ ID NO: 3], CGEN-H7 [SEQ ID NO: 4], CGEN-G4 [SEQ ID NO: 5], CGEN-G6 [SEQ ID NO: 6], CGEN-F9 [SEQ ID NO: 7], CGEN-F12 [SEQ ID NO: 8], CGEN-C6 [SEQ ID NO: 9], CGEN-A11 [SEQ ID NO: 10], and CGEN-G2 [SEQ ID NO: 11] peptides were injected into the sample chamber of the BIACORE device at a rate of […] and the interaction was monitored using surface plasmon resonance. […]
(§2) Peptides CGEN-G6 [SEQ ID NO: 6], CGEN-F9 [SEQ ID NO: 7], CGEN-F12 [SEQ ID NO: 8], CGEN-A11 [SEQ ID NO: 10], and CGEN-G2 [SEQ ID NO: 11] were capable of binding to immobilized Ang1, Ang2, and Ang4 on the chip and were further analyzed for binding kinetics, as follows. Solutions containing different concentrations of CGEN-G6 [SEQ ID NO: 6], CGEN-F9 [SEQ ID NO: 7], CGEN-F12 [SEQ ID NO: 8], CGEN-A11 [SEQ ID NO: 10], and CGEN-G2 [SEQ ID NO: 11] peptides (as indicated in Table 2) were injected into the sample chamber of the BIACORE device at a rate of […] and the interaction was monitored using surface plasmon resonance.

[2] = target: T2, recombinant human Ang2 carrier-free …; test: SPR (BIAcore), Ang2 immobilised on CM5, peptide 0.625-0.039 µM, 1:1 Langmuir fit
Procedure: as §1, §2

[3] = target: T3, recombinant human Ang4 carrier-free …; test: SPR (BIAcore), Ang4 immobilised on CM5, peptide 0.625-0.039 µM, 1:1 Langmuir fit
Procedure: as §1, §2

[4] = target: T2, recombinant human Ang2 carrier-free …; test: SPR (BIAcore), Ang2 immobilised on CM5, peptide 10-50 µM
Procedure: (§3) Peptide-protein binding was analyzed using surface plasmon resonance. Analysis of the to interaction between CGEN-H2 [SEQ ID NO: 1], CGEN-H3 [SEQ ID NO: 2], CGEN-A8 [SEQ ID NO: 3], CGEN-H7 [SEQ ID NO: 4], CGEN-G4 [SEQ ID NO: 5], CGEN-G6 [SEQ ID NO: 6], CGEN-F9 [SEQ ID NO: 7], CGEN-F12 [SEQ ID NO: 8], CGEN-C6 [SEQ ID NO: 9], CGEN-A11 [SEQ ID NO: 10], and CGEN-G2 [SEQ ID NO: 11] peptides and recombinant human Ang1 carrier-free (R&D Systems, Cat#923-AN-025/CF, Lot#FHW1507031), human Ang2 carrier-free (R&D Systems, Cat#623-AN-025/CF, Lot#BNO0457121), and human Ang4 carrier-free (R&D Systems, Cat#964-AN-025/CF, Lot#ELM025121) was conducted using the BIAcore biosensor (Pharmacia Biosensor, Uppsala, Sweden). The recombinant Ang1, Ang2, and Ang4 were immobilized directly to a CM5 sensor chip. Solutions containing 10-50 μM of CGEN-H2 [SEQ ID NO: 1], CGEN-H3 [SEQ ID NO: 2], CGEN-A8 [SEQ ID NO: 3], CGEN-H7 [SEQ ID NO: 4], CGEN-G4 [SEQ ID NO: 5], CGEN-G6 [SEQ ID NO: 6], CGEN-F9 [SEQ ID NO: 7], CGEN-F12 [SEQ ID NO: 8], CGEN-C6 [SEQ ID NO: 9], CGEN-A11 [SEQ ID NO: 10], and CGEN-G2 [SEQ ID NO: 11] peptides were injected into the sample chamber of the BIACORE device at a rate of […] and the interaction was monitored using surface plasmon resonance. […] Binding of CGEN-C6 to Ang2 was not sufficiently strong and too noisy for kinetic measurements or determination of affinity constant.

[5] = target: T3, recombinant human Ang4 carrier-free …; test: SPR (BIAcore), Ang4 immobilised on CM5 chip, peptide injected
Procedure: as §3

[6] = target: T1, recombinant human Ang1 carrier-free …; test: SPR competition (BIAcore), Tie-2/Fc immobilised; Ang1 100-500 nM with peptide 10-50 µM at 1:100
Procedure: Peptide-protein interaction was analyzed using surface plasmon resonance. Analysis of is the interaction between CGEN-G6 [SEQ ID NO: 6], CGEN-F9 [SEQ ID NO: 7], CGEN-C6 [SEQ ID NO: 9], CGEN-A11 [SEQ ID NO: 10], and CGEN-G2 [SEQ ID NO: 11] peptides and recombinant human Tie-2/Fc chimera (carrier-free, R&D Systems, Cat#313-TI, Lot#BKC0707121) was conducted using the BIAcore biosensor (Pharmacia Biosensor, Uppsala, Sweden). The recombinant Tie-2/Fc chimera was immobilized directly to a CM5 sensor chip. Solutions containing 10-50 μM of CGEN-G6 [SEQ ID NO: 6], CGEN-F9 [SEQ ID NO: 7], CGEN-C6 [SEQ ID NO: 9], CGEN-A11 [SEQ ID NO: 10], and CGEN-G2 [SEQ ID NO: 11] were injected into the sample chamber of the BIACORE device at a rate of 20 μl/min and the interaction was monitored using surface plasmon resonance. In addition, solutions containing 100-500 nM of Ang1, Ang2, and Ang4 proteins were injected alone or in combination with 10-50 μM of CGEN-G6 [SEQ ID NO: 6], CGEN-F9 [SEQ ID NO: 7], CGEN-C6 [SEQ ID NO: 9], CGEN-A11 [SEQ ID NO: 10], and CGEN-G2 [SEQ ID NO: 11] peptides at a constant ratio of 1:100 (Ang ligand to peptide) into the sample chamber of the BIACORE device at a rate of 20 μl/min and the interaction was monitored using surface plasmon resonance.
Binding of Ang2 to Tie2 was reduced by 91-100% after incubation with CGEN-G6 [SEQ ID NO: 6] and CGEN-C6 [SEQ ID NO: 9], and to a lesser extent after incubation with CGEN-A11 [SEQ ID NO: 10] and CGEN-F9 [SEQ ID NO: 7] peptides (FIG. 5B). […] Binding of peptides alone to Tie2 was negligible in most cases.

[7] = target: T1, recombinant human Ang1 carrier-free …; test: SPR (BIAcore), Ang1 immobilised on CM5, peptide 25-1.56 µM, 1:1 Langmuir fit
Procedure: as §1, §2

[8] = target: T2, recombinant human Ang2 carrier-free …; test: SPR (BIAcore), Ang2 immobilised on CM5, peptide 25-1.56 µM, 1:1 Langmuir fit
Procedure: as §1, §2

[9] = target: T3, recombinant human Ang4 carrier-free …; test: SPR (BIAcore), Ang4 immobilised on CM5, peptide 25-1.56 µM, 1:1 Langmuir fit
Procedure: as §1, §2

[10] = target: T2, recombinant human Ang2 carrier-free …; test: SPR (BIAcore), Ang2 immobilised on CM5
Procedure: as §3

[11] = target: T1, recombinant human Ang1 carrier-free …; test: SPR (BIAcore), Ang1 immobilised on CM5, peptide 1.25-0.039 µM, 1:1 Langmuir fit
Procedure: as §1, §2

[12] = target: T3, recombinant human Ang4 carrier-free …; test: SPR (BIAcore), Ang4 immobilised on CM5, peptide 1.25-0.039 µM, 1:1 Langmuir fit
Procedure: as §1, §2

Row | Binder | Kd [1] | Kd [2] | Kd [3] | reduction of Ang1 binding to Tie2 [6] | Kd [7] | Kd [8] | Kd [9] | other results
1 | B1 | 0.0174 µM | 0.0566 µM | 0.025 µM |  |  |  |  | 
2 | B2 |  |  |  | ≤ 34% |  |  |  | binding result [4]: binds; binding result [5]: no binding (tested: 10-50 µM)
3 | B3 |  |  |  | ≤ 34% | 6.74 µM | 2.36 µM | 3.69 µM | 
4 | B4 |  |  |  | ≤ 34% |  |  |  | binding result [10]: binds; Kd [11]: 0.0133 µM; Kd [12]: 0.0221 µM
5 | B5 | 0.00188 µM | 5.84 µM | 0.000243 µM |  |  |  |  | 
6 | B6 |  |  |  | ≤ 34% | 21.4 µM | 3.07 µM | 2.82 µM | 
